± gives the standard deviation of the averaged measurements.
Tested on: ATP
Assay: switch fluorescence ratio, 500 uM ATP over buffer (Cy3 cluster intensity, sum of 5 cycles each) (fold (ratio)); higher = stronger signal-on switching upon ATP binding; sequences stand for … in TCGTCGGCAGCGTCAGATGTGTATAAGAGACAGTTTTTTTTTTTTTTTTTTTTTTTTT…TC
Conditions: aptamer strand: ATP DNA aptamer (quencher-CACCTGGGGGAGTATTGCGGAGGAAGG + anchor), 100 nM annealed; ATP concentration: 500 uM
Procedure, shortened: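 Cy3-labelled switching-strand clusters on a modified Illumina MiSeq flow-cell were annealed to 100 nM quencher-labelled ATP aptamer, imaged in selection buffer, then imaged after 15 min with 500 uM ATP at 22 °C. Five buffer/ATP cycles ran, with NaOH stripping and re-annealing between them. The fluorescence ratio is summed target-cycle over summed buffer-cycle Cy3 intensity per cluster, averaged per switch-domain sequence. Clusters outside 100-1000 RFU were excluded.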
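Also: ATP exposure 15 min at 22 °C before imaging.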

## GGGTTGAACG
  switch fluorescence ratio: 0.967 ± 0.03

## GGGTTGAGCG
  switch fluorescence ratio: 1.02 ± 0.012

## GGGTTGATTT
  switch fluorescence ratio: 0.958 ± 0.053

## GGGTTGCTTG
  switch fluorescence ratio: 0.981 ± 0.049

## GGGTTGCTTT
  switch fluorescence ratio: 1 ± 0.024

## GGGTTGGAGT
  switch fluorescence ratio: 0.9965 ± 0.0081

## GGGTTGGGAA
  switch fluorescence ratio: 0.988 ± 0.023

## GGGTTGGGTC
  switch fluorescence ratio: 0.996 ± 0.029

## GGGTTGTAGC
  switch fluorescence ratio: 0.9909 ± 0.0027

## GGGTTGTCGC
  switch fluorescence ratio: 1.01 ± 0.024

## GGGTTGTGAA
  switch fluorescence ratio: 0.994 ± 0.037

## GGGTTGTGGT
  switch fluorescence ratio: 1.01 ± 0.026

## GGGTTGTTCT
  switch fluorescence ratio: 0.9792 ± 0.0087

## GGGTTTAATA
  switch fluorescence ratio: 0.996 ± 0.034

## GGGTTTAGAT
  switch fluorescence ratio: 0.9854 ± 0.0059

## GGGTTTATCA
  switch fluorescence ratio: 1.03 ± 0.03

## GGGTTTATGC
  switch fluorescence ratio: 0.9921 ± 0.0067

## GGGTTTCAGG
  switch fluorescence ratio: 1.017 ± 0.0021

## GGGTTTCAGT
  switch fluorescence ratio: 0.9503 ± 0.0066

## GGGTTTCATG
  switch fluorescence ratio: 0.995 ± 0.024

## GGGTTTGAAT
  switch fluorescence ratio: 0.978 ± 0.032

## GGGTTTGAGG
  switch fluorescence ratio: 0.9806 ± 0.0072

## GGGTTTGCAC
  switch fluorescence ratio: 1.03 ± 0.026

## GGGTTTGCAT
  switch fluorescence ratio: 1.02 ± 0.034

## GGGTTTGCCT
  switch fluorescence ratio: 1.0216 ± 0.0002

## GGGTTTGGCG
  switch fluorescence ratio: 0.999 ± 0.2

## GGGTTTGTTG
  switch fluorescence ratio: 0.988 ± 0.026

## GGGTTTTAAG
  switch fluorescence ratio: 1 ± 0.021

## GGGTTTTACT
  switch fluorescence ratio: 0.991 ± 0.053

## GGGTTTTCTG
  switch fluorescence ratio: 0.945 ± 0.017

## GGGTTTTCTT
  switch fluorescence ratio: 0.961 ± 0.031

## GGGTTTTTCG
  switch fluorescence ratio: 0.994 ± 0.062

## GGTAAAAATT
  switch fluorescence ratio: 0.98453 ± 0.00014

## GGTAAAAGCT
  switch fluorescence ratio: 1.03 ± 0.057

## GGTAAAGGGT
  switch fluorescence ratio: 0.991 ± 0.016

## GGTAAAGGTA
  switch fluorescence ratio: 1 ± 0.029

## GGTAAATGTG
  switch fluorescence ratio: 1.03 ± 0.072

## GGTAACAGCT
  switch fluorescence ratio: 1.04 ± 0.051

## GGTAACAGTG
  switch fluorescence ratio: 1.07 ± 0.085

## GGTAAGACGT
  switch fluorescence ratio: 0.999 ± 0.038

## GGTAAGATAG
  switch fluorescence ratio: 1.01 ± 0.017

## GGTAAGGGGG
  switch fluorescence ratio: 0.99 ± 0.031

## GGTAATGCTT
  switch fluorescence ratio: 1 ± 0.05

## GGTAATTCTG
  switch fluorescence ratio: 0.9837 ± 0.0033

## GGTAATTTGG
  switch fluorescence ratio: 1 ± 0.023

## GGTACAGAAT
  switch fluorescence ratio: 0.9997 ± 0.0012

## GGTACAGAGC
  switch fluorescence ratio: 1 ± 0.064

## GGTACCAGGC
  switch fluorescence ratio: 1.019 ± 0.0021

## GGTACGAAGT
  switch fluorescence ratio: 1.01 ± 0.027

## GGTACGGATC
  switch fluorescence ratio: 1.03 ± 0.018

## GGTACGGGGT
  switch fluorescence ratio: 1 ± 0.028

## GGTACTATCG
  switch fluorescence ratio: 0.961 ± 0.071

## GGTACTATT
  switch fluorescence ratio: 0.991 ± 0.04

## GGTACTGGTA
  switch fluorescence ratio: 0.984 ± 0.057

## GGTACTTAGG
  switch fluorescence ratio: 1.06 ± 0.031

## GGTACTTGGG
  switch fluorescence ratio: 0.984 ± 0.033

## GGTACTTTTT
  switch fluorescence ratio: 1.07 ± 0.14

## GGTAGAGGGG
  switch fluorescence ratio: 0.9628 ± 0.0078

## GGTAGAGGTT
  switch fluorescence ratio: 0.985 ± 0.019

## GGTAGATGGT
  switch fluorescence ratio: 1.01 ± 0.012

## GGTAGGGTGG
  switch fluorescence ratio: 1.02 ± 0.048

## GGTAGGTGTC
  switch fluorescence ratio: 0.985 ± 0.031

## GGTAGGTGTT
  switch fluorescence ratio: 1.04 ± 0.037

## GGTAGTAAGA
  switch fluorescence ratio: 1.01 ± 0.047

## GGTAGTAATT
  switch fluorescence ratio: 0.998 ± 0.0029

## GGTAGTCTTT
  switch fluorescence ratio: 0.996 ± 0.02

## GGTAGTGAGC
  switch fluorescence ratio: 1.02 ± 0.02

## GGTAGTGCGT
  switch fluorescence ratio: 0.968 ± 0.043

## GGTAGTTAGG
  switch fluorescence ratio: 1.03 ± 0.013

## GGTATAAAGA
  switch fluorescence ratio: 0.984 ± 0.049

## GGTATAAGGG
  switch fluorescence ratio: 0.997 ± 0.02

## GGTATAATGG
  switch fluorescence ratio: 0.971 ± 0.03

## GGTATAATTA
  switch fluorescence ratio: 0.964 ± 0.024

## GGTATAATTT
  switch fluorescence ratio: 1.04 ± 0.044

## GGTATACTGT
  switch fluorescence ratio: 0.975 ± 0.029

## GGTATCAAGT
  switch fluorescence ratio: 0.9675 ± 0.0076

Reference: the supplement of paper PMC10126150
